Data from US9127040B2, “Regulation of sodium channels by PLUNC proteins” (The University of North Carolina at Chapel Hill, priority 2011, dated 2015).

Biological target: T1, α and γ ENaC (Rattus norvegicus, UniProt P37089+P37090+P37091)
T1 construct: expressed in transfected cells; host or cells: Xenopus oocytes (cRNA injection; with or without V5-SPLUNC1 and CAP2)
T1 sequence (P37089 1-698): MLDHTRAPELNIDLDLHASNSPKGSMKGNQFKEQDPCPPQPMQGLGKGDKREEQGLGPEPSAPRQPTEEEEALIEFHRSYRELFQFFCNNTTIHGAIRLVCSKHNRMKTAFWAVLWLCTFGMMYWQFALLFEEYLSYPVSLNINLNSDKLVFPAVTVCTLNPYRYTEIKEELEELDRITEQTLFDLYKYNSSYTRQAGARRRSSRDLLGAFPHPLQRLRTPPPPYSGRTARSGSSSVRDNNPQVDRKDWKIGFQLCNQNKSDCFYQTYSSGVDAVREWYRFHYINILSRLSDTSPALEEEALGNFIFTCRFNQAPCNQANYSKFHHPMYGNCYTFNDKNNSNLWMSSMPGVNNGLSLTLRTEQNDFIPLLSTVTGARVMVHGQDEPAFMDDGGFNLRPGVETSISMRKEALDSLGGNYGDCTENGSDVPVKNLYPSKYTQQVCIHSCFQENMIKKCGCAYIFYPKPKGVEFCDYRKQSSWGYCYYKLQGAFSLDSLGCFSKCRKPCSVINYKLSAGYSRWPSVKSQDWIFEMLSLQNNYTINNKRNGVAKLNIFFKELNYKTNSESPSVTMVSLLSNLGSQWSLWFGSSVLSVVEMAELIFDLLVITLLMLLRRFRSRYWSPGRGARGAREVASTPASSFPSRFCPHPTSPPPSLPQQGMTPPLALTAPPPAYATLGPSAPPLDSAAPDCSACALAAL
T1 sequence (P37090 1-638): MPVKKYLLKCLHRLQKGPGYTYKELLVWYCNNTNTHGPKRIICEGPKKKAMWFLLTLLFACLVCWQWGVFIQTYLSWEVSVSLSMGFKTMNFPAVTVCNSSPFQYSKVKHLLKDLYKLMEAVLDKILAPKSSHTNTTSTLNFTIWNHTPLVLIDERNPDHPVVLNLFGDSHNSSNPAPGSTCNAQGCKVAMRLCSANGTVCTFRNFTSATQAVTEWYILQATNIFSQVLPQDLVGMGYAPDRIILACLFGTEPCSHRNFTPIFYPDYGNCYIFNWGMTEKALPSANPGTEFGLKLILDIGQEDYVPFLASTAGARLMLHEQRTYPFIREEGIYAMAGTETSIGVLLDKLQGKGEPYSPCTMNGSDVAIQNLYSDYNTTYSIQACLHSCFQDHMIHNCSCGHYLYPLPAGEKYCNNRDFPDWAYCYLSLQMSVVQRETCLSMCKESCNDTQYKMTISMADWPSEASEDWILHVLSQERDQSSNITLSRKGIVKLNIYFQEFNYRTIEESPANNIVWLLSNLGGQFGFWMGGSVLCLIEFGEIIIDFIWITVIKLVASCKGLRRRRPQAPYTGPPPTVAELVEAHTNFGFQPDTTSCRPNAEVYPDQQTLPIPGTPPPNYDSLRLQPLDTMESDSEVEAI
T1 sequence (P37091 1-650): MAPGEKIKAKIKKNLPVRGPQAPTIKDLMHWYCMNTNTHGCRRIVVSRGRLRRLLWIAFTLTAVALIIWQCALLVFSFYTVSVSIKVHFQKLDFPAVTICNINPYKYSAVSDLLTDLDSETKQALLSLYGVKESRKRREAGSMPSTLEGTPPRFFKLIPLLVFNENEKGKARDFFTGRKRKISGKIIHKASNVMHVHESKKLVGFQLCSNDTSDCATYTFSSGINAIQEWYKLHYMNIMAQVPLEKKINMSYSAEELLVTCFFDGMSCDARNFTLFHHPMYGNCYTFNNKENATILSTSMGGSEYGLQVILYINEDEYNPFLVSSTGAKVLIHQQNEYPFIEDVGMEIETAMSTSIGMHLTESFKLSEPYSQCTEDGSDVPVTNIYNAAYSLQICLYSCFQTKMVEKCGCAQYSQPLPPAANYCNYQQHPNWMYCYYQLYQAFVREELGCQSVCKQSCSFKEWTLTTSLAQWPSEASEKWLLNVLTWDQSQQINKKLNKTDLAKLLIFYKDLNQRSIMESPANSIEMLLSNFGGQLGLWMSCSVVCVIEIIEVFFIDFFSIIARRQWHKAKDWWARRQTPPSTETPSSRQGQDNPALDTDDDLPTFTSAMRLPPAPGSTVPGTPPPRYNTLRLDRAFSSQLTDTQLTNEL
Experiment: Western blot of ENaC cleavage by CAP2 in Xenopus oocytes
Format: cell-based
Conditions: αβγENaC, CAP2 and SPLUNC1 co-expressed in oocytes
Method: Xenopus oocytes were injected with either HA-N-Terminus or V5-C-Terminus (HA-NT/V5-CT) tagged subunits in combination with wild type (WT) untagged rat αβγENaC subunits (0.3 ng cRNA each) with or without V5-tagged SPLUNC1 and CAP2 (1 ng cRNA each). After 24 h, 40 eggs per experimental condition were lysed with buffer containing (in mM): 20 Tris, 50 NaCl, 50 NaF, 10 β-glycerophosphate, 5 Na4P2O7 pyrophosphate, 1 EDTA, pH 7.5 and protease inhibitors (complete, Roche), aprotinin (Sigma). Cell lysates were prepared by passing the eggs through a 27G1/2 needle twice and by centrifugation at 3,600 rpm for 10 minutes at 4° C. […]
Proteolytic cleavage of α and γ subunits is required for ENaC activation (Mueller et al., J. Biol. Chem. 282:33475 (2007); Adebamiro et al., J. Gen. Physiol. 130:611 (2007)) and since CAP2 is highly expressed in human bronchial epithelial cultures (Tarran et al., J. Gen. Physiol. 127:591 (2006)), we tested whether SPLUNC1 could alter α and γ ENaC cleavage by CAP2. Due to the relative scarcity of purified rSPLUNC1, we elected to co-express SPLUNC1 and ENaC rather than use rSPLUNC1 for subsequent oocyte studies since SPLUNC1 is secreted at sufficient quantities from oocytes to inhibit ENaC (FIG. 5). When αβγENaC and CAP2 were co-expressed in oocytes, both full-length ENaC subunits and cleaved α and γ fragments were detected with a V5 antibody (FIG. 7A, 7B). […]

B1: SPLUNC1: human SPLUNC1 (SEQ ID NO:1), 256 amino acid secreted PLUNC family protein; rSPLUNC1 is the purified V5/6His-tagged recombinant form (protein, listed as Homo sapiens)
chain: MFQTGGLIVFYGLLAQTMAQFGGLPVPLDQTLPLNVNPALPLSPTGLAGSLTNALSNGLLSGGLLGILENLPLLDILKPGGGTSGGLLGGLLGKVTSVIPGLNNIIDIKVTDPQLLELGLVQSPDGHRLYVTIPLGIKLQVNTPLVGASLLRLAVKLDITAEILAVRDKQERIHLVLGDCTHSPGSLQISLLDGLGPLPIQGLLDSLTGILNKVLPELVQGNVCPLVNEVLRGLDITLVHDIVNMLIHGLQFVIKV
modifications: V5/6His tag in recombinant form
notes: rSPLUNC1 is the purified V5/6His-tagged recombinant form
α and γ ENaC cleavage by CAP2: only full-length α and γ ENaC subunits could be observed
